Data on 20 molecules can be found in patent publication US20240327505A1 (published 2024).

The target in assay [1] is SARS-CoV-2 spike S1 protein (SARS-CoV-2, UniProt P0DTC2 16-685).
Assay [2] has as its target SARS-CoV-2 spike receptor-binding domain (RBD) (SARS-CoV-2, UniProt P0DTC2 319-541).
Assay [3] has as its target SARS-CoV-2 Spike (S) trimer (SARS-CoV-2, UniProt P0DTC2 16-1213). In words: ELISA on coated S trimer, 1:50.
Assay [4] addresses SARS-CoV-2 spike S1 protein (SARS-CoV-2, UniProt P0DTC2 16-685). This is another data set of the same source.
Assay [5] has as its target SARS-CoV-2 spike S2 protein (SARS-CoV-2, UniProt P0DTC2 686-1213).

B1: AB-009616 (antibody, V domains shown)
VH: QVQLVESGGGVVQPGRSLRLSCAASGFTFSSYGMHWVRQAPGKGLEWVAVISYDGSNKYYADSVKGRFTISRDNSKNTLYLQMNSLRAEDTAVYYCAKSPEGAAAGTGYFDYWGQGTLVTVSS
VL: SYVLTQPPSVSVAPGKTARITCGGNNIGSKSVHWYQQKPGQAPVLVVYDDSDRPSGIPERFSGSNSGNTATLTISRVEAGDEADYYCQVWDSSSDPWVFGGGTKLTVL
Consider B1, for which, in assay [1], the Kd was determined as 13.3 nM, the off-rate constant (koff) came to 0.000755 s⁻¹ and the kon came to 56900 M⁻¹ s⁻¹. Also, in assay [2], the Kd was 3 nM, the koff was found to be 0.000287 s⁻¹ and the on-rate (kon) is 95800 M⁻¹ s⁻¹.

B2: AB-009110 (antibody, V domains shown)
VH: QVQLVQSGAEVKEPGASVKVSCNASGYIFTSYGISWVRQAPGQGLEWVGWISGNNGNTNYAQKFQGRVTLTTDTSTSTAYLELRSLTSADTGVYFCARARLPSAYWGPGTLLTVSS
VL: EILLTQSPATLSVSPGERGSLSCRASQSVGTNLAWYQQKPGQAPRLLIYGASARATGIPARFSGSGSGTEFTLTISSLQSEDFGVYYCQQYNDWPPWTFGQGTKVEIK
For the molecule B2, the “OD 450 nm” value in assay [3] worked out at 0.081 OD.

B3: AB-009760 (antibody, V domains shown)
VH: EVQLVQSGAEVKKPGESLKISCKGSGYSFTSYWIGWVRQMPGKGLEWMGIIYPGDSDTRYSPSFQGQVTISADKSISTAYLQWSSLKASDTAMYYCARSRSSDYFDYWGQGTLVTVSS
VL: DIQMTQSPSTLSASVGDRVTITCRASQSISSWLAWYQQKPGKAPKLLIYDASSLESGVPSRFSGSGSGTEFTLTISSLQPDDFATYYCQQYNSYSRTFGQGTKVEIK
In the case of B3, in assay [4], the Kd stood at 4.16 nM, the koff stood at 0.000267 s⁻¹ and the kon worked out at 64000 M⁻¹ s⁻¹.

B4: AB-009620 (antibody, V domains shown)
VH: QITLKESGPTLVKPTQTLTLTCTFSGFSLSTSGVGVGWIRQPPGKALEWLALIYWDDDKRYSPSLKSRLTITKDTSKNQVVLTMTNMDPVDTATYYCAHHEVATVFDYWGQGTLVTVSS
VL: QSALTQPASVSGSPGQSITISCTGTSSDVGAYNYVSWYQQHPGKAPKLMIYEVSNRPSGVSNRFSGSKSGNTASLTISGLQAEDEADYYCSSYTSSSTVFGGGTKLTVL
In the case of B4, in assay [4], the Kd is 27.5 nM, the koff was 0.00078 s⁻¹ and the kon came to 28400 M⁻¹ s⁻¹.

B5: AB-009080 (antibody, V domains shown)
VH: QVQLQQWGAGLLKPSETLSLTCAVYGGSFSGYYWSWIRQPPGKGLEWIGEINHSGSTNYNPSLKSRVTISVDTSKNQFSLKLSSVTAADTAVYYCARGLPVTTFYYYYYGMDVWGQGTTVTVSS
VL: not shown
For B5, the “OD 450 nm” value in assay [3] is 0.166 OD. Further, in assay [5], binding was characterised by a dissociation constant (Kd) of 0.111 nM, the koff stood at 2.79e-07 s⁻¹ and the kon stood at 2520 M⁻¹ s⁻¹.

B6: AB-009661 (antibody, V domains shown)
VH: QVQLVESGGGVVQPGRSLRLSCAASGFTFSSYGMHWVRQAPGKGLEWVAVISYDGSNKYYADSVKGRFTISRDNSKNTLYLQMNSLRAEDTAVYYCAKDYGDYGGMDVWGQGTTVTVSS
VL: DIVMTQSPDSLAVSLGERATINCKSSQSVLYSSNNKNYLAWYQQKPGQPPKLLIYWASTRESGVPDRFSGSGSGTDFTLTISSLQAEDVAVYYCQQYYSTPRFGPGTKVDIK
In the case of B6, in assay [4], the dissociation constant Kd turned out to be 84 nM, the koff was determined as 0.00428 s⁻¹ and the kon worked out at 51000 M⁻¹ s⁻¹.

B7: AB-009270 (antibody, V domains shown)
VH: QMQLVQSGPEVKKPGTSVKVSCKASGFTFTSSAMQWVRQARGQRLEWIGWIVVGSGNTNYAQKFQERVTITRDMSTSTAYMELSSLRSEDTAVYYCAVNYCSSTSCYDAFDIWGQGTMVTVSS
VL: not shown
In assay [4], B7 gave a dissociation constant (Kd) of 3.02 nM.

B8: AB-009214 (antibody, V domains shown)
VH: QVQLVESGGGVVQPGRSLRLSCAASGFTFSSYGMHWVRQAPGKGLEWVAVIWYDGSNKYYADSVKGRFTISRDNSKNTLYLQMNSLRAEDTAVYYCARDEPPSYYGSGSRFDYWGQGTLVTVSS
VL: SYELTQPPSVSVSPGQTARITCSGDALPKKYAYWYQQKSGQAPVLVIYEDSKRPSGIPERFSGSSSGTMATLTISGAQVEDEADYYCYSTDSSGNHWVFGGGTKLTVL
Turning to B8, in assay [3], the “OD 450 nm” value came to 0.691 OD. Also, the Kd in assay [5] stood at 23.2 nM.

B9: AB-009269 (antibody, V domains shown)
VH: QVQLVQSGAEVKKPGASVKVSCKASGYTFTSYGISWVRQAPGQGLEWMGWISAYNGNTNYAQKLQGRVTMTTDTSTSTAYMELRSLRSDDTAVYYCAREGDCSGGSCYSGYYYYYGMDVWGQGTTVTVSS
VL: EIVLTQSPATLSLSPGERATLSCRASQSVSSYLAWYQQKPGQAPRLLIYDASNRATGIPARFSGSGSGTDFTLTISSLEPEDFAVYYCQQRSNWGTFGPGTKVDIK
Turning to B9, in assay [1], the Kd was 16.7 nM, the koff worked out at 0.000643 s⁻¹ and the kon came to 38500 M⁻¹ s⁻¹. In assay [2], this molecule yielded a Kd of 12 nM, a koff of 0.000675 s⁻¹ and an on-rate (kon) of 56300 M⁻¹ s⁻¹.

B10: AB-009329 (antibody, V domains shown)
VH: QLQLQESGPGLVKPSETLSLTCTVSGGSISSSSYYWGWIRQPPGKGLEWIGSIYYSGSTYYNPSLKSRVTISVDTSKNQFSLKLSSVTAADTAVYYCARHKMGWLQFAGWFDPWGQGTLVTVSS
VL: SSELTQDPAVSVALGQTVRITCQGDSLRSYYASWYQQKPGQAPVLVIYGKNNRPSGIPDRFSGSSSGNTASLTITGAQAEDEADYYCNSRDSSGNHWVFGGGTKLTVL
In the case of B10, in assay [3], the “OD 450 nm” value was determined as 0.235 OD.

B11: AB-009769 (antibody, V domains shown)
VH: EVQLVESGGGLVQPGGSLRLSCAASGFTFSSYWMSWVRQAPGKGLEWVANIKQDGSEKYYVDSVKGRFTISRDNAKNSLYLQMNSLRAEDTAVYYCARSPEVLWFGDPVLDNWFDPWGQGTLVTVSS
VL: SYELTQPPSVSVSPGQTARITCSGDALPKQYAYWYQQKPGQAPVLVIYKDSERPSGIPERFSGSSSGTTVTLTISGVQAEDEADYYCQSADSSGTYPVVFGGGTKLTVL
For B11, in assay [4], the affinity, expressed as Kd, was 106 nM; the koff was 0.00194 s⁻¹; the kon is 18400 M⁻¹ s⁻¹.

B12: AB-009747 (antibody, V domains shown)
VH: QVQLVESGGGVVQPGGSLRLSCAASGFTFSNYGMHWVRQAPGKGLEWVAFIRYDGSNEYYADSVKGRFTISRDNSKNTLYLHMNSLRPEDTAVYYCAKQGLLSNYYYGMDVWGQGTTVTVSS
VL: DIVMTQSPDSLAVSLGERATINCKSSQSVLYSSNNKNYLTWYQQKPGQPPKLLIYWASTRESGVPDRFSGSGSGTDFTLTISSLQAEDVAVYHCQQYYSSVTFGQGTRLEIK
As to B12, in assay [1], the Kd was determined as 45.2 nM, the koff amounted to 0.00379 s⁻¹ and the kon turned out to be 83700 M⁻¹ s⁻¹. This molecule yielded a koff in assay [2] of 0.00105 s⁻¹.

B13: AB-009106 (antibody, V domains shown)
VH: QVQLAQSGAEVKRPGASVKVSCKASGFDLTTYGVGWVRQAPGQGLEWMGWISGSSGDTHYAQQFQDRVTMTTDTPTSTAYMELRSLRSDDTAVYYCVRENIAHYGSRTFLVRYYRGMDVWGQGTTVTVAS
VL: QSALTQPASVSGSPGQSITITCTGSSSDIGGFDFVSWYQQYPGKAPKLVISEVTNRPSGVSIRFSGSKSGNTASLTISGLQAEDEADYYCSSYASSYPTTNTRVFGTGTKVTVL
In the case of B13, the “OD 450 nm” value in assay [3] is 0.1 OD. Further, in assay [5], the Kd is 0.0413 nM, the koff amounted to 2.63e-07 s⁻¹ and the kon was found to be 6370 M⁻¹ s⁻¹.

B14: AB-009083 (antibody, V domains shown)
VH: EVHLLESGGGLVQPGGSLTLTCAASGFSFGNYVMGWVRQAPGKGLEWVSSIFGSGANPHYGGSVKGRFTISRDNSQNTLFLQMDSLTAEDTAVYYCARDGGTMVGGIITGGFNYFDSWGQGTLVTVSS
VL: EIVLTQSPASLSLSPGGWATLSCRASRSIGNSLAWYQQRPGQAPRLLIYDASNRATGIPARFSGSGSGTDFTLTISSLEPEDFAIYYCQQRNSWPPLYTFGQGTKLEIK
For the molecule B14, the “OD 450 nm” value in assay [3] was determined as 0.249 OD. In assay [5], this molecule returned an equilibrium dissociation constant (Kd) of 0.164 nM, a koff of 4.95e-07 s⁻¹ and a kon of 3010 M⁻¹ s⁻¹.

B15: AB-009343 (antibody, V domains shown)
VH: QAQLVESGGGVVQPGRSLRLSCAASGFTFNNHGMHWVRQVPGKGLEWVAVISYEGSKKDYADSVKGRFSISRDNSKQTVYLQMNSLRVEDTAVYYCAKDAAIFMIYPSRYFDLWGRGTLLTVSS
VL: SYELTQPPSMSVSPGQTASITCSGYILGDVSASWYQQKPGQSPVLIIYQDTKRPSGIPDRFSGSDSGNTATLTISGTQATDEADYYCQAWDSRTHVVFGGGTKLTVL
As to B15, in assay [3], the “OD 450 nm” value stood at 0.459 OD.

B16: AB-009221 (antibody, V domains shown)
VH: EVQLVESGGGLVQPGGSLRLSCAASGFTVSSNYMSWVRQAPGKGLEWVSVIYSGGSTYYADSVKGRFTISRHNSKNTLYLQMNSLRAEDTAVYYCARDRNAFDIWGQGTMVIVSS
VL: DIQMTQSPSSLSASVGDRVSITCQASQDISNDLNWYQQKPGKAPKLLVYDASKLETGVPPRFSGSGSGTDFTFTISSLQPEDIATYYCQQYDNLPLYSFGQGTKLEIK
With B16, in assay [1], the Kd came to 34 nM, the koff is 0.00128 s⁻¹ and the kon is 37700 M⁻¹ s⁻¹. Moreover, in assay [2], the affinity, expressed as Kd, was 26.4 nM; the koff was found to be 0.00121 s⁻¹; the kon was 45800 M⁻¹ s⁻¹.

B17: AB-009615 (antibody, V domains shown)
VH: QVQLVESGGGVVQPGRSLRLSCAASGFTFSSYGMHWVRQAPGKGLEWVAVIWYDGSNKYYADSVKGRFTISRDNSKNTLYLQMNSLRAEDTAVYYCAKVGSPYCSGGSCYSGYFDYWGQGTLVTVSS
VL: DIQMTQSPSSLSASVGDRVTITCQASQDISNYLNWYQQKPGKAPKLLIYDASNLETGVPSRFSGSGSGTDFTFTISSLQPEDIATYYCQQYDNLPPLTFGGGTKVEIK
In assay [4], B17 came in with a Kd of 36.6 nM, a koff of 0.00276 s⁻¹ and a kon of 75400 M⁻¹ s⁻¹.

B18: AB-009361 (antibody, V domains shown)
VH: EVQLVESGGGLAQPGGTLRLSCTGYGFIFNNYGLTWVRQAPGKGLEWLSVLSGSSYIKYEADSVRGRFTISRDNSKNTLYLEMNSLTAEDTAVYYCARKGVGSQDYGLDVWGQGTTVIVSS
VL: QSVLAQPPSASETPGQSVTISCSGSTSNIGSNFVYWYQQLPGTAPKLLIYRNTQRPSGVPDRFSGSKSATSASLAISGLRPEDEADYYCAAWDDSLSGGVFGTGTKVTVL
With B18, the “OD 450 nm” value in assay [3] was 1.39 OD.

B19: AB-009364 (antibody, V domains shown)
VH: QVQLVESGGGVVQPGRSLRLSCAASGFTFSSYAMHWVRQAPGKGLEWVAVISYDGSNKYYADSVKGRFTISRDNSKNTLYLQMNSLRAEDTAVYYCARDPDYYDSSSDAFDIWGQGTMVTVSS
VL: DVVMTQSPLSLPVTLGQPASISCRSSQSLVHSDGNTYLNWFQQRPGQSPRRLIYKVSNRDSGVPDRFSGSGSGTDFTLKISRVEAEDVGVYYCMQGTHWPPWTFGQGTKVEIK
For B19, the “OD 450 nm” value in assay [3] was 1.06 OD.

B20: AB-009666 (antibody, V domains shown)
VH: EVQLVESGGGLVQPGGSLRLSCAASGFTFSSYDMHWVRQATGKGLEWVSTIGTAGDTYYPGSVKGRFTISRENAKNSLYLQMNSLRAEDTAVYYCARVNYDSSGYPTYWYFDLWGRGTLVTVSS
VL: DIQMTQSPSSLSASVGDRVTITCRASQSISRYLNWYQQKPGKAPKLLIYAASSLQSGVPSRFSGSGSGTDFTLTISSLQPEDFATYNCQQSYSSPPWTFGQGTKVEIK
With B20, in assay [1], the Kd amounted to 11.9 nM, the koff amounted to 0.000546 s⁻¹ and the kon is 45900 M⁻¹ s⁻¹. In assay [2], this molecule displayed a dissociation constant (Kd) of 3.04 nM, a koff of 0.00062 s⁻¹ and a kon of 204000 M⁻¹ s⁻¹.
